Assay results reported in US20230051715A1 (MABWELL THERAPEUTICS, published 2023).

Columns and labels:
[1] = molecular target: T1, human C1s mutant M5 (K336G) (human, UniProt P09871 16-688); experiment: ELISA, plate coated with human C1s mutant M5: K336G, OD450nm; curve still rising at 1000 ng/ml, no upper plateau in the range
T1 construct: The entry is the mutant itself
T1 sequence: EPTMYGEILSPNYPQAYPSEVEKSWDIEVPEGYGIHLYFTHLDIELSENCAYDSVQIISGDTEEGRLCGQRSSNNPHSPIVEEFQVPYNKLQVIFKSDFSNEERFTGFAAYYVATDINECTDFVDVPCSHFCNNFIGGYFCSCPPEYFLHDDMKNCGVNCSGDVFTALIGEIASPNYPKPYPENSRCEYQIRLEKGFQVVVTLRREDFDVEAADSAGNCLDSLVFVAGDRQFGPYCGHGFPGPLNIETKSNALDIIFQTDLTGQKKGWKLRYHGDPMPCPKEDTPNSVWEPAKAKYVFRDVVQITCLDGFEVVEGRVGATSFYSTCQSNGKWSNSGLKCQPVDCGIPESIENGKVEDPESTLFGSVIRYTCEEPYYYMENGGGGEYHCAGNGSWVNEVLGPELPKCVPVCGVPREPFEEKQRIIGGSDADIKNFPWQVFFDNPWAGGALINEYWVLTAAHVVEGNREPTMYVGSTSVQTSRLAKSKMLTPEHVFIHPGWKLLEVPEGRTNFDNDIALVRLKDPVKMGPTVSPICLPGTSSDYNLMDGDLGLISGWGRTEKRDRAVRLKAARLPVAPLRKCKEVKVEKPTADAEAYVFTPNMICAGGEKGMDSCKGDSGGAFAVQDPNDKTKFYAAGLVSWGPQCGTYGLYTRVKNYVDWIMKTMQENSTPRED
Description: ELISA was carried out by first coating 96-well plates with 200 ng/well of full-length or truncated C1s proteins overnight. The next morning, plates were blocked with SuperBlock T20 blocking buffer (Thermo Scientific 37536) for 1 h with gentle shaking. Then, various concentrations of anti-C1s antibodies diluted in SuperBlock T20 blocking buffer were added to the plates and incubated for 1 h with gentle shaking. Mouse IgG (Sigma-Aldrich 15381) and human IgG1 (BioXCell BP0297) were used as negative controls. The plates were washed before incubating with HRP conjugated secondary antibodies diluted in SuperBlock T20 blocking buffer (goat anti-mouse IgG (H+L) cross-adsorbed secondary antibody HRP (Invitrogen G-21040) or goat anti-human IgG antibody, HRP conjugate (Millipore AP309P)) for 1 h with gentle shaking. At last, the plates were washed and color developed with ELISA liquid HRP substrate (Sigma-Aldrich), followed by stopping the reaction with addition of 1M H₂SO₄ in the same volume as the ELISA liquid substrate. Bound antibody was measured by absorbance at OD₄₅₀ₙₘ.
Binding of anti-C1s antibodies to mutants M1-M20 of human C1s was measured by ELISA as described in Example 4, and results are shown in FIGS. 6B-6U. […]

[2] = molecular target: T2, cynomolgus monkey C1s (produced in house) (cynomolgus monkey, UniProt P09871 16-685 (human entry), limits assumed); experiment: BLI (Octet RED96e), antibody on AHC biosensor; C1s Species: Cyno Monkey; R^2 0.9993
T2 construct: also called CyC1s
T2 chain: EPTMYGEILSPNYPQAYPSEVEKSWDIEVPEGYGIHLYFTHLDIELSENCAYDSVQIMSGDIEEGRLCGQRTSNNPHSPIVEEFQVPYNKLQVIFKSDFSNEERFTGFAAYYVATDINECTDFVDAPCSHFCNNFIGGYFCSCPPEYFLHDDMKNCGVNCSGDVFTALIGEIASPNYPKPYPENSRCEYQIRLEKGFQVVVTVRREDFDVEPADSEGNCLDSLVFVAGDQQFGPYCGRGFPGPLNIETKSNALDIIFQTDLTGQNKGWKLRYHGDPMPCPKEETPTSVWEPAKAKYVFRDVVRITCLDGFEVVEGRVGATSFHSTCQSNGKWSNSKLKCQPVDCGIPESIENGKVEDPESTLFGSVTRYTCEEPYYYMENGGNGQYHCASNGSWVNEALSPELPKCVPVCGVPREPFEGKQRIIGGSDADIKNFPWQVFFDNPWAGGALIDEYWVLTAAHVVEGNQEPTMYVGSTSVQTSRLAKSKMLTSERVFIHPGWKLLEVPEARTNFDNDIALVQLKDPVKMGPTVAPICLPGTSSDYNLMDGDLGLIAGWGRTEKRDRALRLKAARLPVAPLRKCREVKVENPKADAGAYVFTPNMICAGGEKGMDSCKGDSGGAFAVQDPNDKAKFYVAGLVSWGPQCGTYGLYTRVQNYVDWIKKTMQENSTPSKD
Excerpt: At last, analyte was dissociated in 1×KB for 360 sec. Data analysis was done using OCTET® Data Analysis HT Software (Sartorius AG).

EC50 [1]: 0.468 µg/mL | Kd [2]: 3.5 nM | koff [2]: 0.00081 s⁻¹ | kon [2]: 230000 M⁻¹ s⁻¹
B1: Anti-C1s antibody hz2-8 (H1L2 G80A/T82A) (antibody, V domains shown)
VH: QVQLVQSGAEVKKPGASVKVSCKASGFNIKEYYMHWVRQAPEQGLEWMGWIDPENADAIYAQKFQGRVTITADTSTNTAYMELSSLRSEDTAVYYCARSRLFFAYWGQGTLVTVSS
VL: DIQMTQSPKSLSASVGDRVTITCRASQDVRTALDWYQQKPGQSPKLLIYSASYRYSGVPSRFSGSGSGTDFTLTISSLQPEDFATYYCQQQYTTPYTFGQGTKLEIKR
notes: Humanized variant with G80A and T82A in HC CDR2 (already in the entry), human IgG1 / kappa
